Assay results taken from article PMC8159449.

Target: T1, retinoblastoma protein (RB) (Homo sapiens, UniProt P06400 1-928)
T1 sequence: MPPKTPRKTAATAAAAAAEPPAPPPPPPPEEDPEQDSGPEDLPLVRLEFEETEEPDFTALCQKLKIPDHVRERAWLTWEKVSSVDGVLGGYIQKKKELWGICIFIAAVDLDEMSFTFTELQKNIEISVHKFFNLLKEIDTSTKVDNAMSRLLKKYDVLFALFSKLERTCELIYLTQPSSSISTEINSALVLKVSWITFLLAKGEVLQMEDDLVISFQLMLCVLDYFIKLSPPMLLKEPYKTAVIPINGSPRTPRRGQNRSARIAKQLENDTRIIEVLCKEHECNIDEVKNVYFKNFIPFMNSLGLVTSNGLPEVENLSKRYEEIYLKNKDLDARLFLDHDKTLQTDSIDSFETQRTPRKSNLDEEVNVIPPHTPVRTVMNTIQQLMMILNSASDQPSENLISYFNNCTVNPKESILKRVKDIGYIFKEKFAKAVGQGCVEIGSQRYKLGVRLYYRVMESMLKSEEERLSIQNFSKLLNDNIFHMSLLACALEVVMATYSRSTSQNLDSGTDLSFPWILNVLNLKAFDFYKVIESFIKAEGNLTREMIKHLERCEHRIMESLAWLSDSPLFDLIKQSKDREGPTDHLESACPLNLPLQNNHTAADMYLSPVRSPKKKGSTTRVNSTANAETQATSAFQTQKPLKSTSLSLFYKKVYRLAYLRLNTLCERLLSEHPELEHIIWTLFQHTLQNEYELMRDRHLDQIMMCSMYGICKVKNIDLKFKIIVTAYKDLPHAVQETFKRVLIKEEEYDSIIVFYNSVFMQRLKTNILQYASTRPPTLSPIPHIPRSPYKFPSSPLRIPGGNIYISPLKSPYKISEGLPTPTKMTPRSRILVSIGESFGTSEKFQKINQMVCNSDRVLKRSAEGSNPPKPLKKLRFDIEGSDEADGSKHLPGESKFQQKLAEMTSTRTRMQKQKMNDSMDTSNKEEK
Experiment: ELONA

B1: 18E16 (structured_RNA)
RNA: GGAGGGUGGAGGGAAGGG
Kd: 5.1 ± 0.7 nM
